Measurements from article PMC3222324, “PEGylating a bacteriophage endolysin inhibits its bactericidal activity” (AMB Express, 2011).

Target: the molecule itself
Assay: non-reducing SDS-PAGE; purified enzyme, not reduced; 37 kDa and 74 kDa bands (Figure 1, lane 2)

B1: Cpl-1^C45S;D194C (enzyme, pneumococcal phage, UniProt P15057 1-339, looked up)
chain: MVKKNDLFVDVSSHNGYDITGILEQMGTTNTIIKISESTTYLNPSLSAQVEQSNPIGFYHFARFGGDVAEAEREAQFFLDNVPMQVKYLVLDYEDDPSGDAQANTNACLRFMQMIADAGYKPIYYSYKPFTHDNVDYQQILAQFPNSLWIAGYGLNDGTANFEYFPSMDGIRWWQYSSNPFDKNIVLLDDEEDCKPKTAGTWKQDSKGWWFRRNNGSFPYNKWEKIGGVWYYFDSKGYCLTSEWLKDNEKWYYLKDNGAMATGWVLVGSEWYYMDDSGAMVTGWVKYKNNWYYMTNERGNMVSNEFIKSGKGWYFMNTNGELADNPSFTKEPDGLITVA
notes: Cpl-1, pneumococcal phage lysin (endolysin); gene originally carried on plasmid pJML6; expected 37 kDa band; Purified preparation holds the 37 kDa monomer and a 74 kDa disulfide-linked dimer; construct described in Resch et al., 2011; source: E. coli DH5α, purified (DEAE-Sepharose, eluted with choline)
For B1, the “stoichiometry N” value was 2.
